Source: publication PMC4177983

Target: SF162 soluble Env gp140 trimer (HIV-1 isolate SF162 (clade B))
Experiment: SPR; 1273 RUs of SF162 gp140 trimer amine-coupled on a CM5 chip; dual injection, 3 µM 4E10 Fv flowed 5 minutes before and during 10 nM Fab b12 or 447-52D; HBS-EP+, 25°C

Substance: 4E10 Fv
- response bound at 3 µM 4E10 Fv: 90 RUs
